Where a chain is given by its changes, count along the chain named.
T1: human IL-4Rα (human, UniProt P24394 26-232)
T1 construct: also called Hu IL-4Rα; hIL-4Rα
T1 sequence: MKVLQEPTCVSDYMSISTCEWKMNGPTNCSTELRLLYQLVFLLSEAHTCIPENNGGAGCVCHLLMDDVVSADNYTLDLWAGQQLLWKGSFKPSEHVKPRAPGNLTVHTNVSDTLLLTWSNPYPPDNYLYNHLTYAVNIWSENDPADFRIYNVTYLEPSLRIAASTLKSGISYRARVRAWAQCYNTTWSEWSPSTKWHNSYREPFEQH

T2: cynomolgus monkey IL-4Rα (cynomolgus monkey, UniProt P24394 26-231 (human entry), limits assumed)
T2 construct: also called Cyno IL-4Rα; cyIL-4Rα
T2 chain: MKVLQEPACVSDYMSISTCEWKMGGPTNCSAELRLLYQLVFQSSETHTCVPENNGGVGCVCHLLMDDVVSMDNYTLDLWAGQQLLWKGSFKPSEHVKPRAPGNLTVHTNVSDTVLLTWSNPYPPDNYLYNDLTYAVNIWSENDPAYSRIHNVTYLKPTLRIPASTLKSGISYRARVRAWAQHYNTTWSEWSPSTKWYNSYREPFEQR

T3: hIL-4Rα on cells (human, UniProt P24394 26-825)
T3 sequence: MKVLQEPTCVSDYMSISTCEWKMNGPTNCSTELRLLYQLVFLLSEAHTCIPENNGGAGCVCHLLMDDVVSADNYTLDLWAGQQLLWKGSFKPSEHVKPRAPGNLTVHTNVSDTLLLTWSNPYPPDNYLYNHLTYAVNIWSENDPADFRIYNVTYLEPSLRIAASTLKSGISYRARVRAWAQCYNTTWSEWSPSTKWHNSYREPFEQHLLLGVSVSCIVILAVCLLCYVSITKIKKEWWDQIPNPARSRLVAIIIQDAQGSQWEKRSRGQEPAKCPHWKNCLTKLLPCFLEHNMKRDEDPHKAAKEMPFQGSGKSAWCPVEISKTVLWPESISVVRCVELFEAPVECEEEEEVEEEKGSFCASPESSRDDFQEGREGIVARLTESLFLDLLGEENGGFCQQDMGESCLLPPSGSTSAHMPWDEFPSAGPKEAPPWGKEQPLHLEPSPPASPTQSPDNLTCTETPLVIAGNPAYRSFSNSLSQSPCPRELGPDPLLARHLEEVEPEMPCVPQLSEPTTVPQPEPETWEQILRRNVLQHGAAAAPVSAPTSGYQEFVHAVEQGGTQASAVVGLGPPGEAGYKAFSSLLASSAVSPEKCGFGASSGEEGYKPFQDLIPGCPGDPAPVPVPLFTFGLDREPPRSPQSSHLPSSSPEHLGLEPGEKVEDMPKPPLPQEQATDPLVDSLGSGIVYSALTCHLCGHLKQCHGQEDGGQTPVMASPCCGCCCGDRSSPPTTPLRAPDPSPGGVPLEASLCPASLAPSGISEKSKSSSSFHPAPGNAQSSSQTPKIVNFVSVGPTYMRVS

B1: Construct 24 (mAb432) (antibody, IgG4, V domains shown)
VH: EVQLVESGGGLEQPGGSLRLSCAGSGFTFRDFAMTWVRQAPGKGLEWVSSISGSGGNIYYADSVKGRFTISRDNSKNTLYLQMNSLRAEDTAVYYCAKDRLSIAVRPRYYGLDVWGQGTTVTVSS
VL: DIVMTQSPLSLPVTPGEPASISCTASQSLLYSIGKNYVDWYLQKSGQSPQLLIYLGNNRATGVPDRFSGSGSGTDFTLKISRVEAEDVGFYYCMQSLTSPYTFGQGTKLEIK
notes: VH/VL only
B2: Construct 31 (mAb443) (antibody, IgG4, V domains shown)
VH: B1 VH with I103V, A104T
VL: B1 VL with T24R, A25S, I33N, K35Y, V38L, N57S, T61S, S96A, T98Q, S99A
notes: VH/VL only
B3: Construct 38 (mAb471) (antibody, IgG4, V domains shown)
VH: B1 VH with I103V, A104T
VL: B1 VL with T24R, A25S, L55E, N58K, T61S
notes: VH/VL only
B4: Construct 38 (mAb471) with IgG1 YTE LALA heavy chain constant region (antibody, V domains shown)
VH: B1 VH with I103V, A104T
VL: B1 VL with T24R, A25S, L55E, N58K, T61S
B5: Construct 24 (mAb432) with IgG1 YTE LALA heavy chain constant region (antibody, V domains shown)
VH: B1 VH
VL: B1 VL
B6: Construct 15 (mAb423) with IgG1 YTE LALA heavy chain constant region (antibody, V domains shown)
VH: B1 VH with I103K, A104T, V105I
VL: B1 VL with K35Y, N58K, T61S
B7: Construct 31 (mAb443) with IgG1 YTE LALA heavy chain constant region (antibody, V domains shown)
VH: B1 VH with I103V, A104T
VL: B1 VL with T24R, A25S, I33N, K35Y, V38L, N57S, T61S, S96A, T98Q, S99A
B8: Construct 13 (mAb422) with IgG1 YTE LALA heavy chain constant region (antibody, V domains shown)
VH: B1 VH with I51V, I58T, I103V, A104T
VL: B1 VL with T24R, A25S, L29V, K35Y, N58K, T61S

target: T1, human IL-4Rα; assay: KinExA
Protocol: Binding affinity (KD) of exemplary antibodies to human IL-4Rα was determined using the Kinetic Exclusion Assay (KinExA). Briefly, antibody and recombinant human IL-4Rα were equilibrated in solution. […] Samples were incubated for a time period ranging from 3.5 hours to 340 hours, to fully reach equilibrium. Once samples reached equilibrium, azlactone beads previously coated with recombinant human IL-4Rα were used to capture any free antibody from the equilibrated solution. […] The KinExA 4000 instrument was used to capture fluorescent signal and convert to a voltage signal that is directly proportional to the amount of free antibody in all the equilibrated samples, allowing for the determination of the apparent affinity of the antibody.

KD Relative to Dupilumab | Kd | Binder
0.105 | 0.000118 nM | B1
0.252 | 0.000282 nM | B2
0.376 | 0.000421 nM | B3

target: T1, human IL-4Rα; assay: SPR, Carterra LSA;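 note: antibodies captured on an anti-human Fc sensor chip, antigen injected at several concentrations, association and dissociation rates fitted with a 1:1 Langmuir model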
Protocol: (§1) Binding affinity (KD) of antibodies to human and cynomolgus monkey IL-4Rα was determined through surface plasmon resonance (SPR) using a Carterra LSA. Briefly, an HC30M sensor chip that was previously functionalized with a polyclonal mixture of goat anti-human Fc antibody and used to capture purified antibodies at a level between 100-1000 RLU. […] Regeneration of the chip between different concentrations of antigen was performed with 200 mM phosphoric acid and antibody was captured again as previously described. Association and dissociation rate constants were subsequently determined through fitting to a 1:1 Langmuir binding model using the Kinetics Software from Carterra from which a KD value was derived.

KD Relative to Dupilumab | Kd | Binder
0.79 | 0.00891 nM | B1
0.73 | 0.00829 nM | B2
0.52 | 0.00589 nM | B3

Target: T2, cynomolgus monkey IL-4Rα
Assay: SPR, Carterra LSA;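 note: antibodies captured on an anti-human Fc sensor chip, antigen injected at several concentrations, association and dissociation rates fitted with a 1:1 Langmuir model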
Protocol: as §1

KD Relative to Dupilumab | Kd | Binder
0.11 | 66.9 nM | B1
0.67 | 421 nM | B2
0.4 | 249 nM | B3

target: T3, hIL-4Rα on cells; assay: cell-based or functional assay

Relative Inhibition of IL-4 induced pSTAT6 IC50 | Relative Inhibition of IL-13 induced pSTAT6 IC50 | Binder
0.629 relative to dupilumab | 0.586 relative to dupilumab | B1
1.23 relative to dupilumab | 1.61 relative to dupilumab | B2
0.723 relative to dupilumab | 1.56 relative to dupilumab | B3

target: T3, hIL-4Rα on cells; assay: cell-based or functional assay; remark: another data set of the same source

Inhibition of IL-4 induced pSTAT6 IC50 | Inhibition of IL-13 induced pSTAT6 IC50 | Binder
0.248 nM | 1.05 nM | B4
0.269 nM | 1.09 nM | B5
0.122 nM | 0.599 nM | B6
0.452 nM | 0.916 nM | B7
0.185 nM | 0.612 nM | B8

target: T3, hIL-4Rα on cells; assay: cell-based or functional assay; remark: another data set of the same source

Relative Inhibition of IL-4 induced TARC IC50 | Relative Inhibition of IL-13 induced TARC IC50 | Binder
0.445 relative to dupilumab | 0.594 relative to dupilumab | B1
1.37 relative to dupilumab | 0.703 relative to dupilumab | B2
1.17 relative to dupilumab | 1.63 relative to dupilumab | B3

target: T3, hIL-4Rα on cells; assay: cell-based or functional assay; remark: another data set of the same source

Inhibition of IL-4 induced TARC IC50 | Inhibition of IL-13 induced TARC IC50 | Binder
0.259 nM | 0.527 nM | B4
0.222 nM | 0.361 nM | B5
0.127 nM | 0.212 nM | B6
0.228 nM | 0.456 nM | B7
0.179 nM | 0.261 nM | B8

target: T3, hIL-4Rα on cells; assay: cell-based or functional assay; remark: another data set of the same source

Relative Inhibition of IL-4 induced TF-1 Proliferation IC50 | Relative Inhibition of IL-13 induced TF-1 Proliferation IC50 | Binder
1.03 relative to dupilumab | 0.693 relative to dupilumab | B1
1.25 relative to dupilumab | 1.24 relative to dupilumab | B2
1.04 relative to dupilumab | 1.2 relative to dupilumab | B3

target: T3, hIL-4Rα on cells; assay: cell-based or functional assay; remark: another data set of the same source

Inhibition of IL-4 induced TF-1 Proliferation IC50 | Inhibition of IL-13 induced TF-1 Proliferation IC50 | Binder
0.052 nM | 0.161 nM | B4
0.052 nM | 0.166 nM | B5
0.028 nM | 0.117 nM | B6
0.058 nM | 0.175 nM | B7
0.038 nM | 0.119 nM | B8

target: T3, hIL-4Rα on cells; assay: FACS on HEK293 cells, competitor biotin-hIL-4;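 for Relative Blockade of IL-4 Binding IC50: HEK293 cells stably co-expressing hIL-13Rα and hIL-4Rα, stained for 1 h at 4 °C, read-out as mean fluorescence intensity by flow cytometry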

Relative Blockade of IL-4 Binding IC50 | Binder
0.973 relative to dupilumab | B1
1.01 relative to dupilumab | B2
0.981 relative to dupilumab | B3

target: T3, hIL-4Rα on cells; assay: FACS on HEK293 cells, competitor biotin-hIL-4; remark: another data set of the same source;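 for Relative Blockade of IL-4 Binding IC50: HEK293 cells stably co-expressing hIL-13Rα and hIL-4Rα, stained for 1 h at 4 °C, read-out as mean fluorescence intensity by flow cytometry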
Protocol: (§2) Briefly, HEK293 previously transduced to stably express both hIL-13Rα and hIL-4Rα were cultured and harvested. Cells were seeded at 200,000 cells in 100 uL per well. Cells were washed and the supernatant discarded. […] The cells were stained in this mixture at 4° C. for 1 hour. […] Cells were incubated 4° C. for 1 hour, protected from light. Cells were then washed and the MFI of cells in each well were recorded by FACS using a BD FACSCanto II. Subsequent data were analyzed using GraphPad Prism.
(§3) The values reflect absolute IC₅₀ measurements.

IC50 | Binder
0.271 nM | B4
0.234 nM | B5
0.23 nM | B6
0.279 nM | B7
0.238 nM | B8

target: T3, hIL-4Rα on cells; assay: FACS on HEK293 cells, competitor biotin-hIL-13;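 for Relative Blockade of IL-13 Binding IC50: stably transduced cells co-expressing both receptor chains, stained cold, with cell-bound signal read as mean fluorescence intensity by flow cytometry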
Protocol: as §2

Relative Blockade of IL-13 Binding IC50 | Binder
0.825 relative to dupilumab | B1
0.964 relative to dupilumab | B2
0.996 relative to dupilumab | B3

target: T3, hIL-4Rα on cells; assay: FACS on HEK293 cells, competitor biotin-hIL-13; remark: another data set of the same source;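 for Relative Blockade of IL-13 Binding IC50: stably transduced cells co-expressing both receptor chains, stained cold, with cell-bound signal read as mean fluorescence intensity by flow cytometry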
Protocol: as §2, §3

IC50 | Binder
0.226 nM | B4
0.234 nM | B5
0.204 nM | B6
0.209 nM | B7
0.235 nM | B8

— patent US20260193366A1 (APOGEE THERAPEUTICS, published 2026)
